In PMC314469, “Protein Interaction Networks by Proteome Peptide Scanning” (PLoS Biology, 2004):

T1: Abp1 SH3 (ABP1_YEAST), P15891
T1 chain: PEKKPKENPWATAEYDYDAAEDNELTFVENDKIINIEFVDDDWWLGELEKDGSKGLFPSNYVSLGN

B1: YER027C 294-307 (peptide)
chain: DGYTRFHDETPAKP
B2: YGR271W 1320-1332 (peptide)
chain: DHGLYNFPSSVRP
B3: YLR299W 80-93 (peptide)
chain: DHHNIDIDPLPRRP
B4: YPR186C 218-230 (peptide)
chain: DHPKLKSPISSKP
B5: YDL215C 852-864 (peptide)
chain: DHVDIFVPSGGRP
B6: YIL109C 377-389 (peptide)
chain: DIADLEEPFLPRP
B7: YBL015W 191-203 (peptide)
chain: DIDMPVNPPFRKP
B8: YPR070W 510-523 (peptide)
chain: DIEMKDVSSKPSKP
B9: YJR033C 1330-1343 (peptide)
chain: DILDDLSSQKPQKP
B10: YKL092C 848-860 (peptide)
chain: DKKDLDSPIEVKP
B11: YDL156W 333-346 (peptide)
chain: DKKIGSMAINPMRP
B12: YBL101W-B 1603-1616 (peptide)
chain: DKQLIWHKNKPTKP
B13: YBL005W-B 1588-1601 (peptide)
chain: DKQLIWHKSKPVKP
B14: YNL023C 749-762 (peptide)
chain: DKTRSSLHFKPMRP
B15: YAL054C 106-118 (peptide)
chain: DKVFIPDPKTGRP
B16: YDL164C 380-393 (peptide)
chain: DKYSTLRPGIPLKP
B17: YPL009C 301-314 (peptide)
chain: DLEFIYDTFHPFKP
B18: YNL042W 273-286 (peptide)
chain: DLHTHNLHTIPRKP
B19: YNL241C 60-72 (peptide)
chain: DLKSRVLPHLKKP
B20: YMR275C 4-16 (peptide)
chain: DLNDSGFPPKRKP
B21: YMR304W 152-164 (peptide)
chain: DLNNLKHPSKGRP
B22: YDR477W 309-321 (peptide)
chain: DLPEYLLPPDLKP
B23: YMR265C 218-231 (peptide)
chain: DLPRLKWSAIPVRP
B24: YDR488C 342-354 (peptide)
chain: DLTVLRKPQQLRP
B25: YDR074W 548-560 (peptide)
chain: DMERKMTPALNRP
B26: YOR358W 226-239 (peptide)
chain: DMFDFLIDVVPRRP
B27: YAL038W 65-78 (peptide)
chain: DNARKSEELYPGRP
B28: YLR087C 1186-1198 (peptide)
chain: DNDEEADPSSFKP
B29: YMR266W 274-286 (peptide)
chain: DNIAEYVPDKKRP
B30: YNL106C 1102-1115 (peptide)
chain: DPEPAKASTKPEKP
B31: YDR182W 95-108 (peptide)
chain: DPQIMDEYSYPGRP
B32: YHR004C 68-81 (peptide)
chain: DQNQERKNSVPKKP
B33: YER159C 3-16 (peptide)
chain: DQVPVTTQLPPIKP
B34: YGR158C 5-17 (peptide)
chain: DRRRLLGPAAAKP
B35: YJR147W 209-222 (peptide)
chain: DSSLQHQQRQPKRP
B36: YFR037C 542-554 (peptide)
chain: DSIAKLQPQVYKP
B37: YLL029W 272-285 (peptide)
chain: DSIWPDFETLPERP
B38: YGR154C 60-73 (peptide)
chain: DSKGARFLPAPHRP
B39: YHL007C 462-475 (peptide)
chain: DSSSANGKFIPSRP
B40: YMR032W 380-392 (peptide)
chain: DSVLRQKPDKPRP
B41: YBL111C 228-241 (peptide)
chain: DTERLKRDLSPRKP
B42: YLR071C 1030-1042 (peptide)
chain: DTKRLGTPESVKP
B43: YPR032W 898-911 (peptide)
chain: DTLYINGIRIPYRP
B44: YER169W 627-639 (peptide)
chain: DTNDIKTPHPERP
B45: YNL298W 506-519 (peptide)
chain: DVAQPGGVAKPKKP
B46: YIL115C 681-693 (peptide)
chain: DVDSSSTPFGTKP
B47: YGL212W 55-68 (peptide)
chain: DVGSTIPYDFPEKP
B48: YDR242W 443-456 (peptide)
chain: DVIISPTTLMPFRP
B49: YBL035C 6-18 (peptide)
chain: DVITHFGPDADKP
B50: YDL213C 31-43 (peptide)
chain: DVKKEQAPEGKRP
B51: YIL128W 218-230 (peptide)
chain: DVLFSYFPITFKP
B52: YPL073C 93-105 (peptide)
chain: DVMKQSFPRLIKP
B53: YOR028C 108-120 (peptide)
chain: DVPNTAGPHIARP
B54: YLR357W 414-427 (peptide)
chain: DWALLRNQNDPQKP
B55: YHR205W 677-690 (peptide)
chain: EALKQKKIPPPFKP
B56: YDR528W 157-170 (peptide)
chain: EDDTNPQLLEPVKP
B57: YBL007C 188-201 (peptide)
chain: EDEEGPPPAMPARP
B58: YOR287C 64-76 (peptide)
chain: EDFKDTKPVHKKP

Target: T1, Abp1 SH3 (ABP1_YEAST), P15891
Test: SPOT array

| Binder | normalised SPOT signal, Boehringer light units (BLU); mean over the file's lines of this peptide |
| --- | --- |
| B1 | 101 |
| B2 | 77.3 |
| B3 | 122 |
| B4 | 98 |
| B5 | 33.3 |
| B6 | 65.6 |
| B7 | 257 |
| B8 | 85.7 |
| B9 | 131 |
| B10 | 36.5 |
| B11 | 183 |
| B12 | 1730 |
| B13 | 2860 |
| B14 | 377 |
| B15 | 66.6 |
| B16 | 1000 |
| B17 | 89.2 |
| B18 | 76 |
| B19 | 440 |
| B20 | 84.6 |

| Binder | normalised SPOT signal, Boehringer light units (BLU); mean over the file's lines of this peptide |
| --- | --- |
| B21 | 86.6 |
| B22 | 23.2 |
| B23 | 2060 |
| B24 | 27100 |
| B25 | 2180 |
| B26 | 230 |
| B27 | 105 |
| B28 | 68.3 |
| B29 | 91 |
| B30 | 76.2 |
| B31 | 144 |
| B32 | 60 |
| B33 | 74.1 |
| B34 | 483 |
| B35 | 105 |
| B36 | 83.3 |
| B37 | 0 |
| B38 | 299 |
| B39 | 98.6 |
| B40 | 380 |

| Binder | normalised SPOT signal, Boehringer light units (BLU); mean over the file's lines of this peptide |
| --- | --- |
| B41 | 394 |
| B42 | 130 |
| B43 | 135 |
| B44 | 77.3 |
| B45 | 62 |
| B46 | 113 |
| B47 | 140 |
| B48 | 68.9 |
| B49 | 25.6 |
| B50 | 94.6 |
| B51 | 32.1 |
| B52 | 2470 |
| B53 | 144 |
| B54 | 145 |
| B55 | 3010 |
| B56 | 86.1 |
| B57 | 36.2 |
| B58 | 144 |
